Measurements as given in US20260242485A1 (LEPU BIOPHARMA, published 2026).

Tests used:
[1] = biological target: T1, cynomolgus CD16 expressed on CHO-K1 cells (cynomolgus, UniProt Q8SPW2 17-254); assay: flow cytometry, CHO-K1-cyno CD16 cells, geometric mean
T1 construct: whole, on cells; also called cyno CD16; CHO-K1-cynoCD16
Protocol: (§1) In order to evaluate the binding activity of the chimeric mAbs to human CD16A expressed on cells, cell-based binding assay was employed as followed. […] The antibody dilutions were incubated with 1×10⁵ indicated cells in the 96-well microplate for one hour at 4° C. The antibodies binding to the antigen on the cell surface were detected with PE fluorophore-conjugated anti-human IgG Fc secondary antibodies (ThermoFisher scientific, Cat. No. 12-4998-82) at a dilution rate of 1:1000. Cells were analyzed by flow cytometer LSRFortessa Cell Analyzer (BD Biosciences). Data were analyzed with Flowjo 10.0 software. The graph and statistics analysis were generated with four-parameter nonlinear regression curve fit in Graphpad Prism 9 software.
(§2) The assay was performed following the protocol described above.

[2] = biological target: T1, cynomolgus CD16 expressed on CHO-K1 …; assay: flow cytometry on antigen-expressing CHO-K1 cells
Protocol: as §1
(§3) CHO-K1 cells stably expressing cynomolgus CD16 were used in the following test.

[3] = biological target: T2, human CD16A-158V expressed on CHO-K1 cells (human, UniProt P08637 17-254); assay: flow cytometry on antigen-expressing CHO-K1 cells
T2 construct: whole, on cells; also called hCD16A-158V; CHO-K1-hCD16A-158V
T2 sequence (P08637 17-254 F176V): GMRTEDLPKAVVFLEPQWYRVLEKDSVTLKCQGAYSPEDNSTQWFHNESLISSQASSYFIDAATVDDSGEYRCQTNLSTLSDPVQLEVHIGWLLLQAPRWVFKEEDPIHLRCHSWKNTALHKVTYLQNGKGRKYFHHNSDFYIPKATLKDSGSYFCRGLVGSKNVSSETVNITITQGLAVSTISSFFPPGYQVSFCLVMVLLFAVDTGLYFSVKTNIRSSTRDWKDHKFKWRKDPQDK
Protocol: as §1, §3

[4] = biological target: T3, human CD16A-158F expressed on CHO-K1 cells (human, UniProt P08637 17-254); assay: flow cytometry on antigen-expressing CHO-K1 cells
T3 construct: whole, on cells
T3 sequence (P08637 17-254): as the sequence (P08637 17-254 F176V) above, with V160F counted along it
Protocol: as §1, §3

[5] = biological target: T3, human CD16A-158F expressed on CHO-K1 …; assay: flow cytometry, CHO-K1-hCD16A-158F cells, Alexa Fluor 647 anti-human IgG Fc, geometric mean
hCD16A-158F-his protein = biological target: T4, hCD16A-158F-his protein (human, UniProt P08637 17-208); assay: SPR (Biacore 8K), antibody captured on Protein A chip, antigen at 50 nM
T4 construct: Bought protein
T4 sequence (P08637 17-208 limits assumed): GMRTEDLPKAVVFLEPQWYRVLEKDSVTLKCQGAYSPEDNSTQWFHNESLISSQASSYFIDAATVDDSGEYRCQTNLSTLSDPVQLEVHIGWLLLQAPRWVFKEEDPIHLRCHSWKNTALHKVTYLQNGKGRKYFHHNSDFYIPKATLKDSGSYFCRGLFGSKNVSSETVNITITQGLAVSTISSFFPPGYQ
Protocol: (§4) The binding affinity of the chimeric antibodies to human CD16A was determined with Biacore™. Briefly, the antibodies were captured with a Protein A chip. […] The antigen was allowed to dissociate for 500 s. The experiment was carried out on a Biacore™ 8K. Data analysis was carried out using Biacore™ 8K evaluation software.

hCD16A-158V-his protein = biological target: T5, hCD16A-158V-his protein (human, UniProt P08637 17-208); assay: as above
T5 construct: extracellular domain; Bought protein; also called human CD16A-158V-his; Human CD16A-158V (protein)
T5 sequence (P08637 17-208 F176V): as the sequence (P08637 17-208 limits assumed) above, with F160V counted along it
Protocol: as §4

[6] = biological target: T6, human CD16B-NA1 ECD his tag protein (human, UniProt O75015 17-200); assay: ELISA, hCD16B-NA1-his coated at 2 ug/mL, OD450
T6 construct: extracellular domain; Bought protein; also called hCD16B-NA1-his; hCD16B-NA1 protein
T6 sequence (O75015 other isoform, or with tags, fused parts or gaps limits assumed): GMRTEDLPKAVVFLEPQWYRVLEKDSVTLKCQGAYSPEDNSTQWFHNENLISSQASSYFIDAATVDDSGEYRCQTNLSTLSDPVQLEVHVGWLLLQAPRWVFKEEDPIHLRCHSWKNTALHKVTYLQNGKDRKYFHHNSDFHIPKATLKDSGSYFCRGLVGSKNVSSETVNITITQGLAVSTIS
Protocol: (§5) In order to determine the binding ability of the chimeric Abs to human CD16A protein, ELISA-based binding assay was performed as followed. […] The mixture was incubated for 1 hour at room temperature (RT). The primary antibody was recognized by a detective antibody against human IgG Fc which was conjugated with horseradish peroxidase (HRP) (Jackson Immuno, Cat. No. 109-035-008). Tetramethylbenzidine (TMB), a substrate of HRP, was added to the wells to visualize the binding signal. After sufficient color development, stop solution was added to the wells. The absorbance of the signal was detected at 450 nm with Envision multilabel plate readers (PerkinElemer). The graph and statistics analysis were generated with four-parameter nonlinear regression curve fit in Graphpad Prism 9 software.
(§6) In order to determine the binding ability of the chimeric Abs to human CD16B protein, ELISA binding assay was performed as previously described. Three spliced isoforms of CD16B including human CD16B-NA1 ECD his tag protein (hCD16B-NA1-his, Acro Bio, Cat: No. CDB-H5227), human CD16B-NA2 ECD his tag protein (hCD16B-NA2-his, Acro Bio, Cat: No. CDB-H82Ea) and human CD16B-SH-his protein, were used as the coating antigens at 2 μg/mL.

[7] = biological target: T3, human CD16A-158F expressed on CHO-K1 …; assay: flow cytometry, CHO-K1-hCD16A-158F cells, geometric mean
[8] = biological target: T2, human CD16A-158V expressed on CHO-K1 …; assay: flow cytometry, CHO-K1-hCD16A-158V cells, geometric mean
[9] = biological target: T7, human CD16B-NA1 expressed on CHO-K1 cells (human, UniProt O75015 17-200); assay: flow cytometry, CHO-K1-hCD16B-NA1 cells, geometric mean
T7 construct: whole, on cells; also called hCD16B-NA1; CHO-K1-hCD16B-NA1
T7 sequence (O75015 other isoform, or with tags, fused parts or gaps): as the sequence (O75015 other isoform, or with tags, fused parts or gaps limits assumed) above
Protocol: as §1
To exclude the non-specific binding of the CD16A chimeric antibody to human CD16B and CD32B expressed on cells, cell-based binding assay was performed as described above. Firstly, CHO-K1 cells were stably transferred with one human CD16B spliced isoform hCD16B-NA1 and human CD32B. Then, the cells were incubated with the indicated concentrations of CD16A chimeric antibodies.

[10] = biological target: T3, human CD16A-158F expressed on CHO-K1 …; assay: flow cytometry, CHO-K1-hCD16A-158F cells, geometric mean; remark: listed apart in the source
Protocol: as §1, §2

[11] = biological target: T8, human CD16B-NA2 ECD his tag protein (human, UniProt O75015 17-200); assay: ELISA, hCD16B-NA2-his coated at 2 ug/mL, OD450
T8 construct: extracellular domain; Bought protein; also called hCD16B-NA2-his; hCD16B-NA2 protein
T8 sequence (O75015 17-200 N65S limits assumed): as the sequence (O75015 other isoform, or with tags, fused parts or gaps limits assumed) above, with R20S, N49S, D66N, V90I counted along it
Protocol: as §5, §6

[12] = biological target: T9, human GPC3 on HepG2 cells (human, UniProt P51654 25-554); assay: flow cytometry, HepG2 cells (GPC3 positive), geometric mean
T9 construct: whole, on cells; also called GPC3-positive HepG2 cells
T9 sequence (P51654 25-554 limits assumed): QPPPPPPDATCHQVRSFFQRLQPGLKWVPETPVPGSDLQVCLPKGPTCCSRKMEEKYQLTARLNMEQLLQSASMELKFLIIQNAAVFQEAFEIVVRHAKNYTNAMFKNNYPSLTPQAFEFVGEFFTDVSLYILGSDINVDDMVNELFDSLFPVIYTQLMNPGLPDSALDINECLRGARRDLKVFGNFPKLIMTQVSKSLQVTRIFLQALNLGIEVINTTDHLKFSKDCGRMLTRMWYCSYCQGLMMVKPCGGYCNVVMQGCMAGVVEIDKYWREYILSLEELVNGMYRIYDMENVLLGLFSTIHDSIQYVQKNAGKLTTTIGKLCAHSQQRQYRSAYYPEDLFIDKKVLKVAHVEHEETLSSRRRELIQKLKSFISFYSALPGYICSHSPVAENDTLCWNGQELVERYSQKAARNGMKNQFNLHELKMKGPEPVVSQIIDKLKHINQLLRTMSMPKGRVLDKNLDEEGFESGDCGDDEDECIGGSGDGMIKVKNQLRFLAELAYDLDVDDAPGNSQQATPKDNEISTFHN

T1 sequence (Q8SPW2 17-254): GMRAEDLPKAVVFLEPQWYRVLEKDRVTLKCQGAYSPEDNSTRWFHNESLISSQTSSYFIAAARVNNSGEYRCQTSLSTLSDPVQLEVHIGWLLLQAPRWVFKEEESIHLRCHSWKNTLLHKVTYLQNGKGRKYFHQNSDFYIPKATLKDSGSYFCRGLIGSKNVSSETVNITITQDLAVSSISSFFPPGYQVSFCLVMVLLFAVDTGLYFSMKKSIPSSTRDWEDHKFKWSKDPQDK

Row | Binder | EC50 (read off the curve) [1] [nM] | EC50 [2] [nM] | EC50 [3] [nM] | EC50 [4] [nM] | EC50 (read off the curve) [5] [nM] | Kd (hCD16A-158F-his protein) [nM] | koff (hCD16A-158F-his protein) [s⁻¹] | kon (hCD16A-158F-his protein) [M⁻¹ s⁻¹] | Kd (hCD16A-158V-his protein) [nM] | koff (hCD16A-158V-his protein) [s⁻¹] | kon (hCD16A-158V-his protein) [M⁻¹ s⁻¹] | binding result [6] | EC50 (read off the curve) [7] [nM] | EC50 (read off the curve) [8] [nM] | binding result [9] | EC50 (read off the curve) [10] [nM] | binding result [11] | binding result [12]
1 | P2C47-hIgG1 LALAPG (antibody, also called benchmark antibody P2C47) heavy: QVQLVQSGAEVKKPGESLKVSCKASGYTFTSYYMHWVRQAPGQGLEWMGAIEPMYGSTSYAQKFQGRVTMTRDTSTSTVYMELSSLRSEDTAVYYCARGSAYYYDFADYWGQGTLVTVSSASTKGPSVFPLAPSSKSTSGGTAALGCLVKDYFPEPVTVSWNSGALTSGVHTFPAVLQSSGLYSLSSVVTVPSSSLGTQTYICNVNHKPSNTKVDKKVEPKSCDKTHTCPPCPAPEAAGGPSVFLFPPKPKDTLMISRTPEVTCVVVDVSHEDPEVKFNWYVDGVEVHNAKTKPREEQYNSTYRVVSVLTVLHQDWLNGKEYKCKVSNKALGAPIEKTISKAKGQPREPQVYTLPPSREEMTKNQVSLTCLVKGFYPSDIAVEWESNGQPENNYKTTPPVLDSDGSFFLYSKLTVDKSRWQQGNVFSCSVMHEALHNHYTQKSLSLSPGK light: SYVLTQPSSVSVAPGQTATISCGGHNIGSKNVHWYQQRPGQSPVLVIYQDNKRPSGIPERFSGSNSGNTATLTISGTQAMDEADYYCQVWDNYSVLFGGGTKLTVLGQPKANPTVTLFPPSSEELQANKATLVCLISDFYPGAVTVAWKADGSPVKAGVETTKPSKQSNNKYAASSYLSLTPEQWKSHRSYSCQVTHEGSTVEKTVAPTECS | ~0.7 | 1.74 | 0.61 | 0.57 | ~0.4 | 2.23 | 0.002 | 897000 | 1.68 | 0.00135 | 804000 | no binding (tested: 20 nM) | ~0.5 | ~0.5 | no binding (tested: 100 nM) | ~0.4 | no binding (tested: 20 nM) | no binding (tested: 100 nM)
2 | 45H6E8-hIgG1 LALAPG (antibody, also called 45H6E8 chimeric antibody) heavy: EVQLQQSGAELVRSGASVKLSCTASGFNIKDYYMQWVKQRPEQGLEWIGWIDPENGDTEYAPKFQGKATMTADTSSNTAYLQLSSLTSEDTAVYYCTTGGNYVDWGQGTTLTVSSASTKGPSVFPLAPSSKSTSGGTAALGCLVKDYFPEPVTVSWNSGALTSGVHTFPAVLQSSGLYSLSSVVTVPSSSLGTQTYICNVNHKPSNTKVDKKVEPKSCDKTHTCPPCPAPEAAGGPSVFLFPPKPKDTLMISRTPEVTCVVVDVSHEDPEVKFNWYVDGVEVHNAKTKPREEQYNSTYRVVSVLTVLHQDWLNGKEYKCKVSNKALGAPIEKTISKAKGQPREPQVYTLPPSREEMTKNQVSLTCLVKGFYPSDIAVEWESNGQPENNYKTTPPVLDSDGSFFLYSKLTVDKSRWQQGNVFSCSVMHEALHNHYTQKSLSLSPGK light: DIVMTQSQKFMSTSVGDRVSITCKASQNVGTAVAWYQQKPGQSPKLLIYSASNRYTGVPDRFTGSGSGTDFTLTISNMQSEDLADYFCQQYSSYPLLTFGAGTNLELKRTVAAPSVFIFPPSDEQLKSGTASVVCLLNNFYPREAKVQWKVDNALQSGNSQESVTEQDSKDSTYSLSSTLTLSKADYEKHKVYACEVTHQGLSSPVTKSFNRGEC | ~0.7 | 1.74 | 0.36 | 0.4 | ~0.4 | 1.17 | 0.00455 | 3.9e+06 | 1.86 | 0.00655 | 3.52e+06 | no binding (tested: 20 nM) | ~0.5 | ~0.5 | no binding (tested: 100 nM) | ~0.4 | no binding (tested: 20 nM) | no binding (tested: 100 nM)
